Laboratory results as given in the supplement of paper PMC9170038.

System: MS2 coat protein
Assay: apparent KD of MS2 coat protein; designed switch direction (-1 OFF switch, 1 ON switch): -1; higher = weaker reporter binding
Method in brief: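 Normalised cluster fluorescence was curve-fitted, and each design's median over clusters is its apparent KD. Before this, SNAP-549-labelled MS2 coat protein was titrated from 0.7 or 1.5 nM, doubling to 3 µM, over RNA switches transcribed on Illumina chips by stalled E. coli RNA polymerase. Titrations had no input, 200 uM small-molecule ligand, or an oligonucleotide input, and steps lasted 0.8–1.5 h (lowest) to 10–20 min (highest).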

[1] = input ligand: microRNA oligo, concentration not stated
[2] = Eterna round: R95, input ligand: FMN 200 uM
[3] = Eterna round: R95, input ligand: microRNA oligo, concentration not stated
[4] = Eterna round: R95, input ligand: none

Sequence	apparent KD of MS2 coat protein (input ligand: FMN 200 uM)	apparent KD of MS2 coat protein [1]	apparent KD of MS2 coat protein (input ligand: none)	apparent KD of MS2 coat protein [3]	other results
UUUAAUUUUUUUUUUUUACAAGCUUUUUGCUCGUCUUAUACAUGAGGAUCACCCAUGUGGGUGGAAAAUAAAUUAUC [JMF 92] (Eterna round: R96, puzzle: Sensor v3, turn-off variant 2)	583 nM	232 nM	472 nM	–	–
UUUAAUUUUUUUUUUUUACAAGCUUUUUGCUCGUCUUAUACAUGAGGAUCACCCAUGUGGGUGGAAAAUAAAUUAUC [JMF 92] (puzzle: Sensor v3, turn-off variant 2)	–	–	–	45 nM	apparent KD of MS2 coat protein [2]: 33.9 nM; apparent KD of MS2 coat protein [4]: 88.4 nM
UUUAAUUUUUUUUUUUUACAAGCUUUUUGCUCGUCUUAUACAUGAGGAUCACCCAUGUGGGUGGAGGGUAAAUUAUC [JMF 89] (puzzle: Sensor v3, turn-off variant 2)	–	–	–	63.6 nM	apparent KD of MS2 coat protein [2]: 35.9 nM; apparent KD of MS2 coat protein [4]: 67 nM
UUUACAAGCUAUUGAUCCCACAUGAGGAUCACCCAUGUUCAUGGCCGUGAGGCUAGGUAUACAAUUGCUCGUCUUAU [mod-JR] (Eterna round: R97, puzzle: Sensor, turn-off variant 1)	59.8 nM	–	78.7 nM	–	–
UUUACAAGCUUUAGAUCCCACAUGAGGAUCACCCAUGUUGCUGCCGGUGACGGUAGCAUAACUAAUGCUCGUCUUAU [JL TOV1 3.62] (Eterna round: R97, puzzle: Sensor, turn-off variant 1)	123 nM	–	235 nM	–	–
UUUACAAGCUUUUGAUCCCACAUGAGGAUCACCCAUGUUGCUGCCGUGAGGUAGCAUUUAACAAAUGCUCGUCUUAU [JL TOV1 3.54] (Eterna round: R97, puzzle: Sensor, turn-off variant 1)	404 nM	–	1380 nM	–	–
UUUAGUUCAGGAUAUGUAGAAAUUAACAUGAGGAUCACCCAUGUCGAUCCUGAAUUAACUACAGAAGGGAACAUUU [Mod of Brourd 6 - Jieux - Exclusion 5] (Eterna round: R97, puzzle: Exclusion 5)	50 nM	–	14.2 nM	–	–
UUUAGUUCAGGAUAUGUAGAAUUUAACAUGAGGAUCACCCAUGUAGAUCCUGAAUUAACUACAGAAGGGAACAUUU [Exclusion 5: 2:a mod2] (Eterna round: R97, puzzle: Exclusion 5)	69.1 nM	–	15.2 nM	–	–
UUUAGUUCAGGAUAUGUAGACAUUAACAUGAGGAUCACCCAUGUAGAUCCUGAAUUGACUACAGAAGGGAGCAUUU [Mod of Brourd 9 - Jieux - Exclusion 5] (Eterna round: R97, puzzle: Exclusion 5)	88.9 nM	–	23.9 nM	–	–
UUUAUAAUAAGAUCAAUUAAUUAACAUGAGGAUCACCCAUGUGAGGAUAUCAGCUCGAUUAGAGCUGAGAAGGCACAAUAUAAG [ExNG3/17-B1] (Eterna round: R96, puzzle: Exclusion NG 3)	79.3 nM	36.3 nM	43.3 nM	–	–
UUUAUAAUAAGAUCAAUUAAUUAACAUGAGGAUCACCCAUGUGAGGAUAUCAGCUCGUGUAGAGCUGAGAAGGCACAAUAUAAG [ExNG3/17-B3] (Eterna round: R96, puzzle: Exclusion NG 3)	–	36.2 nM	–	–	–
UUUAUAAUUUCAAUCUUCGCUGGCGAACUUACGCCAGCCACAUGAGGAUCACCCAUGUUUUUUGUUCGUUUUAUUCU [Gelaoren] (puzzle: Sensor v3, turn-off variant 2)	–	–	–	66.6 nM	apparent KD of MS2 coat protein [2]: 19.5 nM; apparent KD of MS2 coat protein [4]: 21.1 nM
UUUAUAUAGUAAGGAUAUGUAUUAUUGUUAUCAACAGAAGGUACUGACAUGAGGAUCACCCAUGUUUUAGUGUGGGCAUGUAGU [JMF's solution 96] (Eterna round: R96, puzzle: Exclusion NG 1)	425 nM	277 nM	446 nM	–	–
UUUAUAUAUGAAGGAUAUACUUAACAUGAGGAUCACCCAUGUGGUGUUGUGAGUGAGUGAGUUUAGUAGAAGGUCAAGUAUUUU [JMF's solution 49] (Eterna round: R96, puzzle: Exclusion NG 2)	719 nM	177 nM	198 nM	–	–
UUUAUGUAAGGAUAUAUGAGUCACGGAAAUAAACCGUGAAGAUAGAAGGUACAUGAGGAUCACCCAUGUAAGGC [Mod of Anonveat 8 - Jieux - Exclusion 4] (Eterna round: R97, puzzle: Exclusion 4)	40.1 nM	–	22.9 nM	–	–
UUUAUGUCAGGAUAUACAUGAGGAUCACCCAUGUAUAUCUUAAAGUAUACAUGGGAAUGUAGAAGGGACCUCCU [Omei Ex3 Pseudoloop 5] (Eterna round: R97, puzzle: Exclusion 3)	43.8 nM	–	35 nM	–	–
UUUAUGUCAGGAUAUGAUUAGAUCUACUUUUGUAGAUCUAAUCAGAAGGGACAUGAGGAUCACCCAUGUAGUUU [Ex4 - 3 - 14] (puzzle: Exclusion 4)	–	–	–	116 nM	–
UUUAUUAAUUAAUAUAAUAAGAUCACAUGAGGAUCACCCAUGUAGGAUAUCAGCUCGUUUAGAGCUGAGAAGGACAUAAUUAUA [ExNG3/1-B2] (Eterna round: R96, puzzle: Exclusion NG 3)	135 nM	33.6 nM	35.9 nM	–	–

Sequence	apparent KD of MS2 coat protein (input ligand: FMN 200 uM)	apparent KD of MS2 coat protein [1]	apparent KD of MS2 coat protein (input ligand: none)	apparent KD of MS2 coat protein [3]	other results
UUUCAGCUAGGAUAUGCCCUGAUGCACAUGAGGAUCACCCAUGUCGGCUUGUGUAUGAGCGCAGAAGGAGCGAAAA [EX5 C.17] (Eterna round: R97, puzzle: Exclusion 5)	783 nM	–	268 nM	–	–
UUUCUCUGGGCGUCUUCUUACAUGAGGAUCACCCAUGUUUCAUAGGAUAUGCUAUAGUGUUACAUGCAGAAGGAUGUUUGUUUU [JR_ExcNG3_Sub080] (Eterna round: R96, puzzle: Exclusion NG 3)	–	189 nM	–	–	–
UUUGAAUAGGUAGGAUAUACAUACAUUCCUACAUUACUAACAUGAGGAUCACCCAUGUAUACAUUGUAGAAGGACCAGAUUGAU [JR_ExcNG2_Sub039] (Eterna round: R96, puzzle: Exclusion NG 2)	–	18.8 nM	–	–	–
UUUGAUAGCACAGGAUAUUGUCAUUUGAGUUGUCAAGAAGGGUGUACAUGAGGAUCACCCAUGUAAUGGUUGCCUCGCUGACUU [JR_ExcNG1_Sub007] (Eterna round: R96, puzzle: Exclusion NG 1)	–	105 nM	–	–	–
UUUGAUUGCACAGGAUAUUGUCAUUUGAGUUGUCAAGAAGGGUGUACAUGAGGAUCACCCAUGUUAUGCUUUCCUCGCUCACUU [JR_ExcNG1_Sub009] (Eterna round: R96, puzzle: Exclusion NG 1)	15.5 nM	12.8 nM	20 nM	–	–
UUUGCAAGCUUUAGAUCCCACAUGAGGAUCACCCAUGUUGCUGCCGUGAGGUAGCUUUUAACUAAUGCUCGUCUUAU [JL TOV1 3.45] (Eterna round: R97, puzzle: Sensor, turn-off variant 1)	88.2 nM	–	163 nM	–	–
UUUGUUUAUGUAGGAUAUGCCUGGCGUGCCUUUGCAGAAGGACAUGAGGAUCACCCAUGUAUUGCGGUCUGCGUUCAGAUCGCC [salish99_ExNG1_r4_036] (Eterna round: R96, puzzle: Exclusion NG 1)	29.6 nM	17.4 nM	23 nM	–	–
UUUGUUUUGCAAGGAUAUGUUUAAUUUUAGUUUCCUUACACAUGAGGAUCACCCAUGUUAUACUUACAGAAGGUGCGUAAUUUG [Excl-NG2-LRO03] (Eterna round: R96, puzzle: Exclusion NG 2)	–	122 nM	–	–	–
UUUGUUUUGGUAGGAUAUACUUUUAUUUUCUCUUUCCUUACAUGAGGAUCACCCAUGUUUACAUUGUAGAAGGACCACUUUGUU [JR_ExcNG2_Sub051] (Eterna round: R96, puzzle: Exclusion NG 2)	–	15.5 nM	–	–	–
UUUUAACAUGAGGAUCACCCAUGUCAGGAUAUGGUUUUUUUUUUUUUUUUUUUUUUUUCCAGAAGGGACAUUUU [My solution] (puzzle: Exclusion 1)	–	–	–	5.77 nM	apparent KD of MS2 coat protein [2]: 42.5 nM; apparent KD of MS2 coat protein [4]: 3.88 nM
UUUUAACAUGAGGAUCACCCAUGUGAGGAUAUCGAAAUUUAUAUUAAUAUUAAUAAAUCGAGAAGGCACAUUUU [JMF 20] (puzzle: Exclusion 1)	–	–	–	109 nM	–
UUUUAACAUGAGGAUCACCCAUGUGAGGAUAUCGAAAUUUAUAUUAAUAUUAUUUAUUCGAGAAGGCACAUUUU [JMF 45] (puzzle: Exclusion 1)	–	–	–	118 nM	–
UUUUAACAUGAGGAUCACCCAUGUGAGGAUAUCGAAAUUUAUAUUAAUAUUUAUAAUACGAGAAGGCACAUUUU [JMF 54] (puzzle: Exclusion 1)	–	–	–	84.4 nM	–
UUUUAACAUGAGGAUCACCCAUGUGAGGAUAUCGAAAUUUAUAUUAAUAUUUAUAUAACGAGAAGGCACAUUUU [JMF 55] (puzzle: Exclusion 1)	–	–	–	65.3 nM	–
UUUUAACAUGAGGAUCACCCAUGUGAGGAUAUCGAAAUUUAUAUUAAUAUUUAUAUUACGAGAAGGCACAUUUU [JMF 58] (Eterna round: R96, puzzle: Exclusion 1)	103 nM	55.3 nM	62.9 nM	–	–
UUUUAACAUGAGGAUCACCCAUGUGAGGAUAUCGAAAUUUAUAUUAAUAUUUAUAUUACGAGAAGGCACAUUUU [JMF 58] (puzzle: Exclusion 1)	–	–	–	75.9 nM	–
UUUUAACAUGAGGAUCACCCAUGUGAGGAUAUCGAAAUUUAUAUUUAUAUUUAUAAAACGAGAAGGCACAUUUU [JMF 91] (puzzle: Exclusion 1)	–	–	–	113 nM	–
UUUUAACAUGAGGAUCACCCAUGUGAGGAUAUCGAAAUUUAUAUUUAUAUUUAUAAAUCGAGAAGGCACAUUUU [JMF 92] (puzzle: Exclusion 1)	–	–	–	111 nM	–
